{"source": "patent US20200283773", "about": "“NUCLEOLIN-TARGETING APTAMERS AND METHODS OF USING THE SAME” (Duke University, published 2020)", "binders": {"B1": {"name": "FAM-E (ssRNA)", "RNA": "GGGAGAGAGGAAGAGGGAUGGGCACGGUCCAGCGCUAACUGUACCUGCUGUGCCACCCACCGCAUAACCCAGAGGUCGAUAGUACUGGAUCCCCCC", "modifications": "2'-F pyrimidines"}, "B2": {"name": "Ev3.min22 (ssRNA)", "RNA": "GGGAGGAAGAGGGAUGGGCACGGUCCAGCGCUAACUGUACCUGCUGUGCCACCC", "modifications": "2'-F pyrimidines"}, "B3": {"name": "FAM-D (ssRNA)", "RNA": "GGGAGAGAGGAAGAGGGAUGGGCACAUGGUACGCCCAAAGCGAGGCCCGCUGCGUAGUGCCAUAACCCAGAGGUCGAUAGUACUGGAUCCCCCC", "modifications": "2'-F pyrimidines"}, "B4": {"name": "FAM-C (ssRNA)", "RNA": "GGGAGAGAGGAAGAGGGAUGGGAAGAUCUGCUAAGUGCACGCACAAUCACCAUCGAGCGUCUCAUAACCCAGAGGUCGAUAGUACUGGAUCCCCCC", "modifications": "2'-F pyrimidines"}, "B5": {"name": "Ev3 (ssRNA)", "RNA": "GGGAGAGAGGAAGAGGGAUGGGCACGGUCCAGCGCUAACUGUACCUGCUGUGCCACCCACCG", "modifications": "2'-F pyrimidines"}, "B6": {"name": "Dv2 (ssRNA)", "RNA": "GGGAGAGAGGAAGAGGGAUGGGCACAUGGUACGCCCAAAGCGAGGCCCGCUGCGUAGUGCC", "modifications": "2'-F pyrimidines"}, "B7": {"name": "FAM-B (ssRNA)", "RNA": "GGGAGAGAGGAAGAGGGAUGGGAGCCAGCUUUGCAUACCACGUGCAAUUCACUCCACCCGUCACAUAACCCAGAGGUCGAUAGUACUGGAUCCCCCC", "modifications": "2'-F pyrimidines"}, "B8": {"name": "Bv1 (ssRNA)", "RNA": "GGAAGAGGGAUGGGUGCCAGCUUUGCAUACCACGUGCAAUUCACUCCACCCGUCAC", "modifications": "2'-F pyrimidines"}, "B9": {"name": "Ev3.min24 (ssRNA)", "RNA": "GGGAGGAAGAGGGAUGGGCACGGUCCAGCGCACUGUACCUGCUGUGCCACCC", "modifications": "2'-F pyrimidines"}, "B10": {"name": "FAM-F (ssRNA)", "RNA": "GGGAGAGAGGAAGAGGGAUGGGACCACGCGCCAACGUGUCAGCUACACGCCGUGUUCCCCGGCAUAACCCAGAGGUCGAUAGUACUGGAUCCCCCC", "modifications": "2'-F pyrimidines"}, "B11": {"name": "Fv3 (ssRNA)", "RNA": "GGGAGAGAGGAAGAGGGAUGGGACCACGCGCCAACGUGUCAGCUACACGCCGUGUUCCCCGG", "modifications": "2'-F pyrimidines"}, "B12": {"name": "Ev5 (ssRNA)", "RNA": "GGAAGAGGGAUGGGCACGGUCCAGCGCUAACUGUACCUGCUGUGCCACCCACC", "modifications": "2'-F pyrimidines"}}, "details_in_all_cases": "label: 32P end label", "key": {"[1]": {"target": "T1, nucleolin (NCL), recombinant (Homo sapiens, UniProt P19338 SEQ:1-710)", "T1 sequence (P19338 whole entry)": "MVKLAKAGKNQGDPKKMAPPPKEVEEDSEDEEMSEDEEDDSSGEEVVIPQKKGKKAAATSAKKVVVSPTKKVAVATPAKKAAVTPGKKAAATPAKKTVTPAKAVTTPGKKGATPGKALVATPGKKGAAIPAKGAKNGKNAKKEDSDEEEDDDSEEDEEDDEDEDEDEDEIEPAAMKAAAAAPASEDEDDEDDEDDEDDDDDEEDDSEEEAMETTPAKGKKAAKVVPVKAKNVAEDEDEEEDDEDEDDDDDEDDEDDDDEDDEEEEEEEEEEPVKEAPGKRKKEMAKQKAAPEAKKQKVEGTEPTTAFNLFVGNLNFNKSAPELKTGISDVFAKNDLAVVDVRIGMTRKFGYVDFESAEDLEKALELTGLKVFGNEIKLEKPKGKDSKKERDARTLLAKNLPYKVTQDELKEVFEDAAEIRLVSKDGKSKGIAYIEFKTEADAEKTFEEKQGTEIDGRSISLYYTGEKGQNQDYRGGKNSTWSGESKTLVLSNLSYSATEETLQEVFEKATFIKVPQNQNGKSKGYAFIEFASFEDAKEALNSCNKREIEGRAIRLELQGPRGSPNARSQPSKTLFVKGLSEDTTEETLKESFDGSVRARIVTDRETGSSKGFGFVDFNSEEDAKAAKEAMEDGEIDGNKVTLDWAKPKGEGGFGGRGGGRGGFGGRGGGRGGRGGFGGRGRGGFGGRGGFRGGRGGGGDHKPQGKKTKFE", "experiment": "filter; 20 mM Hepes, 150 mM NaCl, 2 mM CaCl2, 0.01% BSA, 37 C; Bmax 23.08%", "protocol": "(§1) Aptamers were end-labeled with ³²P. Nucleolin protein was serially diluted in 20 mM Hepes, 150 mM NaCl, 2 mM CaCl₂ and 0.01% bovine serum albumin and incubated with a trace amount of the ³²P-labeled RNA pools. After incubation at 37° C., unbound RNA was captured on a nylon membrane and RNA-nucleolin complexes captured on a nitrocellulose membrane. The fraction of protein-bound RNA was determined via phosphorimaging of the nitrocellulose and nylon membranes."}, "[2]": {"target": "T1, nucleolin (NCL), recombinant", "experiment": "filter; similar affinity to parent Ev3"}, "[3]": {"target": "T1, nucleolin (NCL), recombinant", "experiment": "filter; 20 mM Hepes, 150 mM NaCl, 2 mM CaCl2, 0.01% BSA, 37 C; Bmax 53.6%", "protocol": "as §1"}, "[4]": {"target": "T1, nucleolin (NCL), recombinant", "experiment": "filter; 20 mM Hepes, 150 mM NaCl, 2 mM CaCl2, 0.01% BSA, 37 C; Bmax 32.76%", "protocol": "as §1"}, "[5]": {"target": "T1, nucleolin (NCL), recombinant", "experiment": "filter; Ev2 described as non-binding aptamer control"}, "[6]": {"target": "T1, nucleolin (NCL), recombinant", "experiment": "filter; among truncates with best affinity; values only in figure"}, "[7]": {"target": "T1, nucleolin (NCL), recombinant", "experiment": "filter; 20 mM Hepes, 150 mM NaCl, 2 mM CaCl2, 0.01% BSA, 37 C; Bmax 25.2%", "protocol": "as §1"}, "[8]": {"target": "T1, nucleolin (NCL), recombinant", "experiment": "filter; 20 mM Hepes, 150 mM NaCl, 2 mM CaCl2, 0.01% BSA, 37 C; Bmax 33.6%, R2 0.6520", "protocol": "as §1"}}, "data": [{"binder": "B1", "values": [{"measurement": "Kd", "setting": "[1]", "value": 1.69, "unit": "nM"}]}, {"binder": "B2", "values": [{"measurement": "binding result", "setting": "[2]", "value": "binds"}]}, {"binder": "B3", "values": [{"measurement": "Kd", "setting": "[3]", "value": 0.586, "unit": "nM"}]}, {"binder": "B4", "values": [{"measurement": "Kd", "setting": "[4]", "value": 0.428, "unit": "nM"}]}, {"binder": "GGGAUGGGCACGGUCCAGCGCUAACUGUACCUGCUGUGCCACCCACCGC (ssRNA, 2'-F pyrimidines)", "note": "[Ev2]", "values": [{"measurement": "binding result", "setting": "[5]", "value": "no binding"}]}, {"binder": "B5", "values": [{"measurement": "binding result", "setting": "[6]; DL650 for flow", "value": "binds"}]}, {"binder": "B6", "values": [{"measurement": "binding result", "setting": "[6]", "value": "binds"}]}, {"binder": "B7", "values": [{"measurement": "Kd", "setting": "[7]", "value": 0.851, "unit": "nM"}]}, {"binder": "B8", "values": [{"measurement": "binding result", "setting": "[6]", "value": "binds"}]}, {"binder": "B9", "values": [{"measurement": "binding result", "setting": "[2]", "value": "binds"}]}, {"binder": "B10", "values": [{"measurement": "Kd", "setting": "[8]", "value": 0.37, "unit": "nM"}]}, {"binder": "B11", "values": [{"measurement": "binding result", "setting": "[6]", "value": "binds"}]}, {"binder": "GGGAUGGGCACGGUCCAGCGCUAACUGUACCUGCUGUGCCACCC (ssRNA, 2'-F pyrimidines)", "note": "[Ev3.min21]", "values": [{"measurement": "binding result", "setting": "[2]", "value": "binds"}]}, {"binder": "B12", "values": [{"measurement": "binding result", "setting": "[6]; DL650 for flow", "value": "binds"}]}]}
